The labels stand for the following.
B1: Nanobody 36 (CA4436) (VHH)
VHH: QVQLQESGGGSVQAGGSLRLSCTVSGTIFSVTVMGWYRQAPGKQRELVAGFTNTRNTNYVDSVKGRFTISKDSAKNTMYLQMNSLKPEDTAVYYCNVRRWGGTNWNDYWGQGTQVTVSS
notes: also called Nb36
B2: Nanobody 37 (CA4437) (VHH)
VHH: QVQLQESGGGFVQAGGSLRLSCAASGSIFSKNTMAWFRQAPGKERELVAASPTGGSTAYKDSVKGRFTISRDSAKNTVLLQMNVLKPEDTAVYYCHLRQNNRGSWFHYWGQGTQVTVSS
notes: also called Nb37
B3: Nanobody 40 (CA4440) (VHH)
VHH: QVQLQESGGGLVQAGGSLRLSCAVSGTIFDITPMGWYRQTPGKQREVVADLTSRGTTNYADSVKGRFTISRDNAKKMLYLQMNSLKSDDTGVYYCNVKRWGGIGWNDYWGQGTQVTVSS
notes: Tested as periplasmic extract in ELISA; also called Nb40
B4: Nanobody 41 (CA4441) (VHH)
VHH: QVQLQESGGGLVQSGGSLRLSCVASGFRFSNFPMMWVRQAPGKGLEWVSLISIGGSTTNYADSVKGRFTISRDNAKNTLFLQMNSLKPEDTAVYYCAKYLGRLVPPTTEGQGTQVTVSS
notes: Tested as periplasmic extract in ELISA; also called Nb41
B5: Nanobody 35 (CA4435) (VHH)
VHH: QVQLQESGGGLVQPGGSLRLSCAASGFTFSNYKMNWVRQAPGKGLEWVSDISQSGASISYTGSVKGRFTISRDNAKNTLYLQMNSLKPEDTAVYYCARCPAPFTRDCFDVTSTTYAYRGQGTQVTVSS
notes: Llama VHH raised against the BS2G cross-linked β2AR:Gs:BI167107 complex; expressed in E. coli periplasm; also called Nb35; NB35
B6: Nanobody 33 (CA4433) (VHH)
VHH: QVQLQESGGGLVQPGGSLRLSCAASGFTFSNYVMNWVRQAPGKGLEWVSDISNGGGTTSYASSVKGRFTISRDNAKNTLYLQMNGLKPADTAVYYCARCPAPFTNDCMDITSTTYAYRGQGTQVTVSS
notes: Tested as periplasmic extract in ELISA; also called Nb33

In this test the target is T1, agonist-bound β2AR-356 reconstituted at high density into phospholipid vesicles (UniProt P07550 1-365).
T1 construct: Solid phase coated on Maxisorb plates for ELISA; also called purified receptor alone; reconstituted receptor alone
Nature of the test: ELISA on purified receptor alone. Background: An ELISA detects its analyte on a solid surface through an enzyme-linked reagent.
B1: the binding result is “no binding”. Take B2: the binding result was “no binding”. Next, B3: “no binding”; B4: “no binding”; B5: “no binding”. Take B6: the binding result is listed as “no binding”.

The values above are taken from patent US20140275487A1 (VIB VZW, published 2014).
